From patent publication US20190091326A1

Key:
[1] = biological target: 108060 I169K/E172V V1/V2 scaffold, gD-tagged, produced in GnTI- 293 HEK cells (herpes simplex virus 1; HIV-1 isolate 108060); experiment: ELISA; table row 108060 V1/V2 I169K/E172V, GnTI-
CAP.45 V1/V2 wt (293) = experiment: ELISA; table row CAP.45 V1/V2 wt, column 293
[2] = biological target: MN V1/V2 scaffold, wildtype, gD-tagged, produced in GnTI- 293 HEK cells (herpes simplex virus 1; HIV-1 isolate MN) (UniProt Q69091); experiment: ELISA; table row MN V1/V2 wt, GnTI-
[3] = biological target: MN V1/V2 scaffold, wildtype, gD-tagged, produced in normal 293 HEK cells (herpes simplex virus 1; HIV-1 isolate MN) (UniProt Q69091); experiment: ELISA; table row MN V1/V2 wt, column 293
Bal.01 V1/V2 wt (293) = experiment: ELISA; table row Bal.01 V1/V2 wt, column 293
[4] = biological target: ZM233 V1/V2 scaffold, wildtype, gD-tagged, produced in normal 293 HEK cells (herpes simplex virus 1; HIV-1 isolate ZM233); experiment: capture ELISA on 34.1 anti-gD; scaffold made in normal 293 cells
ZM109 V1/V2 wt (293) = experiment: ELISA; table row ZM109 V1/V2 wt, column 293
[5] = biological target: JRFL-E168K V1/V2 scaffold, engineered, gD-tagged, produced in GnTI- 293 HEK cells (herpes simplex virus 1; HIV-1 isolate JRFL); experiment: ELISA; table row JRFL-E168K V1/V2.eng1*, GnTI-
[6] = biological target: A244 V1/V2 scaffold, wildtype (unmutated), Strep-tag/6x Histidine-tag, expressed in GnTI- cells (HIV-1 isolate A244); experiment: SPR (Biacore 3000), PG9 captured by anti-human Fc at about 100 RU, scaffold flowed, 1:1 Langmuir fit
[7] = biological target: 108060 I169K/E172V/T161M/N156I V1/V2 scaffold, gD-tagged, produced in normal 293 HEK cells (herpes simplex virus 1; HIV-1 isolate 108060); experiment: ELISA; table row 108060 I169K/E172V/T161M/N156I, column 293
[8] = biological target: ZM233 V1/V2 scaffold, engineered, gD-tagged, produced in GnTI- 293 HEK cells (herpes simplex virus 1; HIV-1 isolate ZM233); experiment: capture ELISA on 34.1 anti-gD; scaffold made in GnTI- cells
[9] = biological target: A244 V1/V2 scaffold, wildtype (unmutated), Strep-tag/6x Histidine-tag, expressed in GnTI- cells (HIV-1 isolate A244); experiment: SPR (Biacore 3000), PG9 captured on anti-human Fc, scaffold flowed, 1:1 Langmuir fit
[10] = biological target: JRFL-E168K V1/V2 scaffold, wildtype, gD-tagged, produced in normal 293 HEK cells (herpes simplex virus 1; HIV-1 isolate JRFL) (UniProt Q69091); experiment: ELISA; table row JRFL-E168K V1/V2 wt, column 293
[11] = biological target: MN V1/V2 scaffold, engineered, gD-tagged, produced in GnTI- 293 HEK cells (herpes simplex virus 1; HIV-1 isolate MN); experiment: ELISA; table row MN V1/V2.eng1*, GnTI-
[12] = biological target: JRFL-E168K V1/V2 scaffold, engineered, gD-tagged, produced in normal 293 HEK cells (herpes simplex virus 1; HIV-1 isolate JRFL); experiment: ELISA; table row JRFL-E168K V1/V2.eng1*, column 293
[13] = biological target: A244 V1/V2 scaffold, wildtype, gD-tagged, produced in GnTI- 293 HEK cells (herpes simplex virus 1; HIV-1 isolate A244) (UniProt Q69091); experiment: ELISA; table row A244 V1/V2 wt, GnTI-
ZM233 mutant - N156 = experiment: ELISA, PG9 titrated, absorbance 490 nm
ZM233 mutant + N156 = experiment: ELISA, PG9 titrated, absorbance 490 nm
[14] = biological target: UCSC1207 V1/V2/V3 scaffold (glycosylation site moved from N334 to N332) grown in GnTI- cells (HIV-1 isolate A244 (clade CRF01-AE)); experiment: ELISA, mAb titrated on scaffold, absorbance 492 nm; curve 512 (1207 GNTI-)
[15] = biological target: 108060-I169K V1/V2 scaffold, gD-tagged, produced in normal 293 HEK cells (herpes simplex virus 1; HIV-1 isolate 108060); experiment: ELISA; table row 108060 V1/V2 I169K, column 293
[16] = biological target: 108060 V1/V2 scaffold, wildtype, gD-tagged, produced in normal 293 HEK cells (herpes simplex virus 1; HIV-1 isolate 108060); experiment: ELISA; table row 108060 V1/V2 wt, column 293
[17] = biological target: 108060 I169K/E172V/T161M/N156I/S164G/D167G V1/V2 scaffold, gD-tagged, produced in GnTI- 293 HEK cells (herpes simplex virus 1; HIV-1 isolate 108060); experiment: ELISA; table row 108060 V1/V2.eng1*, GnTI-
[18] = biological target: JRFL-E168K V1/V2 scaffold, wildtype, gD-tagged, produced in GnTI- 293 HEK cells (herpes simplex virus 1; HIV-1 isolate JRFL) (UniProt Q69091); experiment: ELISA; table row JRFL-E168K V1/V2 wt, GnTI-
ZM233 mutant, Mock = experiment: ELISA of mock- or Endo H-digested scaffold, PG9 titrated, absorbance 490 nm
MN mutant, Mock = experiment: as above
[19] = biological target: MN V1/V2 scaffold, engineered, gD-tagged, produced in normal 293 HEK cells (herpes simplex virus 1; HIV-1 isolate MN); experiment: ELISA; table row MN V1/V2.eng1*, column 293

PG9 monoclonal antibody
EC50 [1]: 0.113 µg/mL
EC50 (CAP.45 V1/V2 wt (293)): 0.312 µg/mL
EC50 [2]: > 10 µg/mL
EC50 [3]: > 10 µg/mL
EC50 (Bal.01 V1/V2 wt (293)): 0.853 µg/mL
EC50 [4]: 0.0771 µg/mL
EC50 (ZM109 V1/V2 wt (293)): 0.517 µg/mL
EC50 [5]: 0.013 µg/mL
Kd [6]: 15 nM
EC50 [7]: 0.599 µg/mL
EC50 [8]: 0.01 µg/mL
kon [9]: 53000 M⁻¹ s⁻¹
EC50 [10]: > 10 µg/mL
EC50 [11]: 0.00796 µg/mL
EC50 [12]: 0.0473 µg/mL
EC50 [13]: 0.000741 µg/mL
EC50 (read off the curve) (ZM233 mutant - N156): 0.03 µg/mL
EC50 (read off the curve) (ZM233 mutant + N156): 0.1 µg/mL
EC50 [14]: 0.02 µg/mL
EC50 [15]: > 10 µg/mL
EC50 [16]: > 10 µg/mL
EC50 [17]: 0.00685 µg/mL
EC50 [18]: > 10 µg/mL
EC50 (read off the curve) (ZM233 mutant, Mock): 0.03 µg/mL
EC50 (read off the curve) (MN mutant, Mock): 0.1 µg/mL
EC50 [19]: 0.0274 µg/mL
